Source: paper PMC10074561

What was measured:
TASK3 [1] = biological target: TASK3 (UniProt Q9NPC2); assay: fluorescence polarisation; fluorescence anisotropy; 14-3-3 titrated in the presence of 10 nM labelled TASK3; KD fitted here with a one-to-one equilibrium model; data (Dataset S1) from earlier work
TASK3 [2] = biological target: TASK3 (UniProt Q9NPC2); assay: fluorescence polarisation; 2D fluorescence anisotropy titrations of 14-3-3 at varying concentrations of fusicoccin-A, 10 nM labelled TASK3; fitted here with a ternary equilibrium model, KD,I fixed at 4.05 μM; data (Dataset S2) published before

Sequence of UniProt Q9NPC2 (Q9NPC2 whole entry): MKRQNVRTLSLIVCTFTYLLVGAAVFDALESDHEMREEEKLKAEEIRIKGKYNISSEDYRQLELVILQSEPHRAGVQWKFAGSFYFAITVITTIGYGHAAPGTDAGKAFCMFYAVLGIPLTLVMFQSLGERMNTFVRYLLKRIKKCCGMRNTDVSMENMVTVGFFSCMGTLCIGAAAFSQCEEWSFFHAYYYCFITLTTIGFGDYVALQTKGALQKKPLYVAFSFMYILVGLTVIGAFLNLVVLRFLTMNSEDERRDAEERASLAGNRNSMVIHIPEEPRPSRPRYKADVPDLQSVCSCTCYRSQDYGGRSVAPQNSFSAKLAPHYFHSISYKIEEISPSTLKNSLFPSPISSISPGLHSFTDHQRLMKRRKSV

Kd (TASK3 [1]): 4.05 µM
cooperativity factor α with fusicoccin-A (TASK3 [2]): 1340
Substance: 14-3-3 protein (from UniProt P31947 1-248) (natural protein)
